{
  "source": "patent US20260234655A1",
  "about": "“Nuclear Targeted DNA Delivery and Compositions for Use in Practicing the Same” (Seawolf Therapeutics, Inc., priority 2022, published 2026)",
  "molecules": {"B1": {"name": "NFKB: benchmark DTS with NF-κB binding sites in pentameric repeat (SEQ ID NO: 140) (nucleic acid)", "DNA": "GGGACTTTCCAGATTACTACTGATAGGGACTTTCCAGATTACTACTGATAGGGACTTTCCAGATTACTACTGATAGGGACTTTCCAGATTACTACTGATAGGGACTTTCC", "modifications": "DNA nuclear targeting sequence within DNA cargo construct, further chemistry not given here"}},
  "key": {"[1]": {"test_system": "primary human hepatocytes", "experiment": "pDNAs containing DTSs transfected into primary human hepatocytes; GFP by quantitative live-cell imaging and FACS", "assay_type": "cell-based", "details": "24 h post-transfection", "description": "(§1) DNA construct design. Each DTS was constructed in pentameric repeat using a 15 bp spacer between each TFBS. The DTS was appended just 5′ to the promoter, effectively in a putative enhancer region. Various promoters were employed in these constructs, including CBh (a variant of the CAG promoter) and TTR. Several reporter genes were employed in these constructs, including enhanced Green Fluorescent Protein (eGFP). The polyadenylation (polyA) signal is a BGH-PolyA sequence. For pooled screening, unique molecular identifiers (UMIs; also known as barcodes) were used to distinguish between DNA constructs in a pool, and the UMIs were appended to the 3′UTR immediately downstream of the stop codon of eGFP, just preceding the BGH-PolyA sequence.\nPlasmid DNAs (pDNAs) containing various DTSs were transfected into primary human hepatocytes. GFP expression was quantified 24 h post-transfection by measuring GFP intensity using quantitative live-cell imaging, then cells were harvested and the % of GFP-positive cells was measured by FACS. A strong correlation between total GFP intensity and % GFP-positive cells was observed (FIG. 3A). The DTSs identified as hits (open circles) increased both the GFP intensity and the % GFP-positive cells compared to the Spacer negative control (FIG. 3A). […]"}, "[2]": {"test_system": "growth-arrested HepG2 cells", "experiment": "Arrayed DTS screen in growth-arrested HepG2 cells; GFP intensity by live-cell imaging", "assay_type": "cell-based", "details": "24 h post-transfection", "description": "as §1\nCell culture. HepG2 cells were plated into a 384-well plate and grown for 48 hours to achieve confluency. Cell media was removed and replaced with culture media supplemented with Aphidicolin (1 uM) using EL406 automated plate washer and dispenser, then cells were transfected with DTS containing 17.5 ng plasmids using Lipofectamine 3000 without supplement. Expression of GFP was monitored using a Biotek Cytation 5 cell imaging reader over 24 hours to evaluate DTS activity. Total GFP per well was calculated and averaged over 4 well replicates.\npDNAs containing various DTSs (Table 12) were transfected individually into growth-arrested HepG2 cells. Cell growth was inhibited to prevent dissolution of the nuclear envelope. GFP expression was quantified over a period of 24 h post-transfection by measuring GFP intensity using quantitative live-cell imaging. Statistical analysis and hierarchical clustering methods were used to easily differentiate strong DTSs from weak DTSs in a heatmap (FIG. 5A). […] DTS.203: CREB1, PPARA, ONECUT1, HNF4A, PPARA. DTS.233: HNF1A, NR113, PPARA, HNF1A, PPARA. DTS.276: FOXA1, HNF4A, HNF1A, HNF4A, HNF1A.\nFor the arrayed screen, pDNAs containing various DTSs were transfected individually into growth-arrested HepG2 cells. For the pooled screen, pDNAs containing various DTSs were pooled together and transfected as a pool into growth-arrested HepG2 cells. Cell growth was inhibited to prevent dissolution of the nuclear envelope, which improves the accuracy of measuring DTS activity related to nuclear translocation. For the arrayed screen, GFP protein expression was quantified 24 h post-transfection by measuring GFP intensity using quantitative live-cell imaging. For the pooled screen, mRNA abundance for each DTS variant was determined using RNA-seq by deconvoluting the read counts for each UMI. A strong correlation between protein expression in the arrayed screen and mRNA expression in the pooled screen was observed (FIG. 6). […] Pooled screening can thus be used to quickly and reliably identify strong DTSs."}},
  "data": [
    {"molecule": "B1", "values": [
      {"measurement": "gene expression compared to the pDNA with no DTS", "setting": "[1]", "result": "robust increases"},
      {"measurement": "increase in GFP intensity compared to the pDNA with no DTS", "setting": "[1]", "result": "~10", "unit": "fold"},
      {"measurement": "GFP intensity / gene expression in arrayed screen compared to Spacer negative control", "setting": "[2]", "result": "robust increases"}
    ]}
  ]
}
